The results in this text go back to paper PMC4597910.

Where two headings read alike, the source gives them in different places.

In series [1] the target is T1, GB1-SRSF1 RRM1+2 (UniProt Q07955 16-195). The experiment in a line: NMR titration.
Series [2] deals with T1, GB1-SRSF1 RRM1+2. The experiment in a line: NMR titration. This is another data set of the same source.

T1 sequence (Q07955 16-195): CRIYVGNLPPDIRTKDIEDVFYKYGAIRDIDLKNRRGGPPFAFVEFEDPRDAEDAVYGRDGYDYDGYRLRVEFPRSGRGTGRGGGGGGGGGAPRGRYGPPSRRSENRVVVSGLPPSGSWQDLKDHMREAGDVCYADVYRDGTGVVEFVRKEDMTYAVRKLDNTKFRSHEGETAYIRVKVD

With UCACUGGA (ssRNA) [UCACUGGA mutant], the binding result in the series with GB1-SRSF1 RRM1+2 [1] is reported as “binds”.

As for UCAGAGGA (ssRNA) [WT UCAGAGGA], the binding result with GB1-SRSF1 RRM1+2 [2] is “binds”.
